Source: patent US20240327847, “COMPOSITIONS AND METHODS FOR RNA AFFINITY” (SANOFI, published 2024)

Target: streptavidin (UniProt P22629 P22629:25-183)
Assay: pulldown; recovery similar to tRNA scaffold control, described as non-specific under these conditions
Settings: tags: immobilised on sepharose beads (streptavidin sepharose); chain copies: 4 (inferred)
Protocol: Subsequently, the beads were resuspended in 20 μL of binding buffer with RNasin Ribonuclease Inhibitor (3 μL/100 units) and then incubated on ice for 15 minutes. (2) Preparation of RNA aptamers. 2.5 μg of the RNA aptamers were resuspended in 10 μL binding buffer. Refolding of the RNA aptamers was performed by heating at 56° C. for 5 min, 37° C. for 10 min, followed by a room temperature incubation for 5 minutes to refold aptamer structure. At the end of the RNA aptamer preparation procedure, 2 μL of the random aptamer and the Sim aptamer in a 1:2 mix with binding buffer were collected as a control for total RNA aptamer yield (input control). (3) Incubation conditions. 10 μL of refolded aptamer containing mRNA (2.5 μg) aptamers were added to the beads and incubated at 4° C. for 2 hours on a rotator. Subsequently, beads were washed 3 times with 100 μL of binding buffer and kept on ice for the remainder of the procedure to maintain aptamer secondary structure. (4) Elution of RNA aptamers from beads. Elution was performed with 250 μL phenol-based reagent in the following steps. […] RNA concentration following streptavidin affinity purification was quantified on a Nanodrop using parameters set by the manufacturer's specifications.
Affinity binding of the Sm, tRNA, tRNA-Sm, and 2× tRNA Sm aptamer tags were analyzed. […]

streptavidin, sequence (P22629 25-183, one chain of several): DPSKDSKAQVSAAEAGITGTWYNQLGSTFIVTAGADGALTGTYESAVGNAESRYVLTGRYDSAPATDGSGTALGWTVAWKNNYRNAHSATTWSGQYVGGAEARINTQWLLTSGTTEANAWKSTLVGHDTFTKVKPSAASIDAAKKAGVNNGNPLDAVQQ

Q: Does CGACCAGAAUCAUGCAAGUGCGUAAGAUAGUCGCGGG (ssRNA) [Sm aptamer (pAM20)] bind?
A: no binding
